Assay type in all cases: biochemical
The subject of one data set is Aβ1–40. Description: Steady-state kinetics of peptide cleavage, fluorescence polarisation. As to conditions: for Km / kcat / Fold change in kcat/KM: substrate Aβ 1–40; for Km / kcat: 37°C, pH 7.4; for Fold change in kcat/KM: ratio of wild-type NEP kcat/KM to that of the mutant; for increase in kcat/KM (catalytic efficiency) on Aβ1–40 over wild-type NEP: substrate Aβ1–40, relative to wild-type NEP. As to the method:
(§1) For detailed kinetic characterisation of peptide cleavage by NEP, a similar assay to that above was used with modifications based on a published method. Peptides were synthesised by Bachem using 9-fluorenylmethyloxycarbonyl solid-phase peptide synthesis and were labelled with a N-terminal 5(6)FAM via a ε-aminocaproic acid linker and a C-terminal biotin via a lysine linker (Table S1). Purified peptides were supplied as trifluoroacetate salts with a purity ≥95%. The assay was performed in a 96-well microtitre plate and contained 50 mM HEPES (pH 7.4), 100 mM NaCl, 0.05% (w/v) BSA (Buffer A), 1–200 µM peptide substrate and 1–500 nM NEP protein. Reactions were incubated at 37°C before being stopped at various time points between 2 and 360 min by transferring 5 µL aliquots to 245 µL Buffer A containing 2 mM 1,10-phenanethroline (Sigma) and 2 µM avidin (Invitrogen). For peptide substrates containing disulphide bonds, 1 mM tris(2-carboxyethyl)phosphine (Thermo Scientific) was added to the stop solution. The fluorescence polarisation of the resulting solution was measured on a Victor plate reader and the amount of substrate cleaved was determined with reference to substrate-only controls with and without avidin. Initial rates were obtained by linear regression of the linear regions of time courses. Enzyme velocity was plotted as a function of substrate concentration and the Michaelis-Menten equation was used to fit the data, giving the parameters kcat and KM.
(Fluorescence polarisation rises when a labelled molecule tumbles more slowly, as on binding a larger partner.)

In a further data set the test system is Angiotensin. The data set is described as above. To be noted: substrate Angiotensin; for Km / kcat: 37°C, pH 7.4; for Fold change in kcat/KM: ratio of wild-type NEP kcat/KM to that of the mutant. As to the method: as §1
The next data set deals with Bradykinin. The description is as above. To be noted: substrate Bradykinin; for Km / kcat: 37°C, pH 7.4; for Fold change in kcat/KM: ratio of wild-type NEP kcat/KM to that of the mutant. As to the method:
as §1

The test system of a further data set is Neurotensin. The description is as above. To be noted: substrate Neurotensin; for Km / kcat: 37°C, pH 7.4; for Fold change in kcat/KM: ratio of wild-type NEP kcat/KM to that of the mutant. How it is done:
as §1

A further data set concerns Glucagon. The data set is described as above. To be noted: substrate Glucagon; for Km / kcat: 37°C, pH 7.4; for Fold change in kcat/KM: ratio of wild-type NEP kcat/KM to that of the mutant. How it is done: as §1
Data set [1] relates to Aβ1–40 or 1–42 and eight off-target peptides. As to the kind of experiment: High-throughput fluorescence polarisation screen of NEP variants. To be noted: high throughput screening, relative to wild-type. As to the method:
To screen NEP variants for improved activity on and specificity towards Aβ a high-throughput assay was developed where cleavage activity on Aβ1–40 or 1–42 and eight off-target peptides (see Table S1) was determined by fluorescence polarisation. Peptide substrates were labelled with DY-505 or DY-647 at the N-terminus and biotin at the C-terminus. The biotin serves for increasing the molecular size of uncleaved peptides after addition of strepavidin, thereby increasing the assay window and measurable signals. Peptide cleavage assays were performed by incubating NEP variant samples in a microtitre plate containing assay solution composed of 60 nM peptide substrate in 50 mM HEPES (pH 7.4) containing 150 mM NaCl and 0.05% Pluronic F-68 (Sigma). […] The extent of peptide cleavage was determined by measuring the fluorescence polaristion of the stopped reactions on a plate reader (Tecan) with an appropriate set up of polarisation filters. […]
To rank these variants the change in activity on the Aβ1–40 peptide was divided by the average change in specificity on the other peptides and then by the specificity of the wild-type enzyme. […] At many other positions only a single amino acid substitution was detected as having improved specificity, and some of these provided the largest gains observed. […]

The Km is the substrate concentration at which the rate is half of its maximum. By kcat is commonly meant the number of substrate molecules converted per active site and unit of time at saturation.

B1: NEP G714K: single mutant G714K of the human NEP ectodomain (protein, UniProt P08473 52-750, looked up, variant G714K)
extracellular domain: YDDGICKSSDCIKSAARLIQNMDATTEPCTDFFKYACGGWLKRNVIPETSSRYGNFDILRDELEVVLKDVLQEPKTEDIVAVQKAKALYRSCINESAIDSRGGEPLLKLLPDIYGWPVATENWEQKYGASWTAEKAIAQLNSKYGKKVLINLFVGTDDKNSVNHVIHIDQPRLGLPSRDYYECTGIYKEACTAYVDFMISVARLIRQEERLPIDENQLALEMNKVMELEKEIANATAKPEDRNDPMLLYNKMTLAQIQNNFSLEINGKPFSWLNFTNEIMSTVNISITNEEDVVVYAPEYLTKLKPILTKYSARDLQNLMSWRFIMDLVSSLSRTYKESRNAFRKALYGTTSETATWRRCANYVNGNMENAVGRLYVEAAFAGESKHVVEDLIAQIREVFIQTLDDLTWMDAETKKRAEEKALAIKERIGYPDDIVSNDNKLNNEYLELNYKEDEYFENIIQNLKFSQSKQLKKLREKVDKDEWISGAAVVNAFYSSGRNQIVFPAGILQPPFFSAQQSNSLNYGGIGMVIGHEITHGFDDNGRNFNKDGDLVDWWTQQSASNFKEQSQCMVYQYGNFSWDLAGGQHLNGINTLGENIADNGGLGQAYRAYQNYIKKNGEEKLLPGLDLNHKQLFFLNFAQVWCGTYRPEYAVNSIKTDVHSPKNFRIIGTLQNSAEFSEAFHCRKNSYMNPEKKCRVW
modifications: extracellular domain
notes: single mutant G714K of the human NEP ectodomain
As to B1, the Km was 42 ± 0.7 µM with Aβ1–40; 18 ± 1 µM in the data set on Angiotensin; 120 ± 8 µM in the data set with Bradykinin; 10 ± 0.7 µM in the data set with Neurotensin; 42 ± 5 µM in the data set on Glucagon. In addition, the turnover number (kcat) is 1.9 ± 0.2 s⁻¹ in the data set on Aβ1–40; 12 ± 0.3 s⁻¹ in the data set with Angiotensin; 7.4 ± 0.3 s⁻¹ with Bradykinin; 8.6 ± 0.2 s⁻¹ in the data set on Neurotensin; 5.2 ± 0.3 s⁻¹ in the data set on Glucagon. Also, the “Fold change in kcat/KM” value was found to be 0.18 in the data set with Aβ1–40; 1.5 in the data set on Angiotensin; 7.5 with Bradykinin; 0.98 with Neurotensin; 1.5 in the data set with Glucagon. In the data set with Aβ1–40, the “increase in kcat/KM (catalytic efficiency) on Aβ1–40 over wild-type NEP” value is ~6 fold. Moreover, in data set [1] (activity on Aβ1–40 relative to other peptides), the improvement in specificity result is reported as “approximately 12 fold”. The “improvement in activity on Aβ” value in data set [1] is ~7 fold.

B2: NEP G399V: single mutant G399V of the human NEP ectodomain (protein, UniProt P08473 52-750, looked up, variant G399V)
extracellular domain: YDDGICKSSDCIKSAARLIQNMDATTEPCTDFFKYACGGWLKRNVIPETSSRYGNFDILRDELEVVLKDVLQEPKTEDIVAVQKAKALYRSCINESAIDSRGGEPLLKLLPDIYGWPVATENWEQKYGASWTAEKAIAQLNSKYGKKVLINLFVGTDDKNSVNHVIHIDQPRLGLPSRDYYECTGIYKEACTAYVDFMISVARLIRQEERLPIDENQLALEMNKVMELEKEIANATAKPEDRNDPMLLYNKMTLAQIQNNFSLEINGKPFSWLNFTNEIMSTVNISITNEEDVVVYAPEYLTKLKPILTKYSARDLQNLMSWRFIMDLVSSLSRTYKESRNAFRKALYVTTSETATWRRCANYVNGNMENAVGRLYVEAAFAGESKHVVEDLIAQIREVFIQTLDDLTWMDAETKKRAEEKALAIKERIGYPDDIVSNDNKLNNEYLELNYKEDEYFENIIQNLKFSQSKQLKKLREKVDKDEWISGAAVVNAFYSSGRNQIVFPAGILQPPFFSAQQSNSLNYGGIGMVIGHEITHGFDDNGRNFNKDGDLVDWWTQQSASNFKEQSQCMVYQYGNFSWDLAGGQHLNGINTLGENIADNGGLGQAYRAYQNYIKKNGEEKLLPGLDLNHKQLFFLNFAQVWCGTYRPEYAVNSIKTDVHSPGNFRIIGTLQNSAEFSEAFHCRKNSYMNPEKKCRVW
modifications: extracellular domain
notes: single mutant G399V of the human NEP ectodomain
Consider B2, for which the Km in the data set with Aβ1–40 was 55 ± 7 µM; with Angiotensin, 3.6 ± 0.4 µM; in the data set on Bradykinin it was 79 ± 10 µM; in the data set with Neurotensin it was 12 ± 1 µM; with Glucagon, 20 ± 2 µM. In addition, the kcat with Aβ1–40 turned out to be 2.7 ± 0.2 s⁻¹; in the data set with Angiotensin it was 0.73 ± 0.03 s⁻¹; in the data set with Bradykinin, 0.15 ± 0.01 s⁻¹; in the data set on Neurotensin, 1.1 ± 0.04 s⁻¹; with Glucagon it was 2.9 ± 0.1 s⁻¹. Besides, the “Fold change in kcat/KM” value with Aβ1–40 stood at 0.16; in the data set on Angiotensin it was 4.6; in the data set with Bradykinin, 250; in the data set with Neurotensin, 8.2; in the data set on Glucagon it was 1.2. Moreover, the “increase in kcat/KM (catalytic efficiency) on Aβ1–40 over wild-type NEP” value in the data set on Aβ1–40 is on record as ~6 fold.

The record behind these values is publication PMC4121237, “Engineering Neprilysin Activity and Specificity to Create a Novel Therapeutic for Alzheimer’s Disease” (PLoS ONE, 2014).
